Test results as given in patent publication US20260092121A1 (TALEM THERAPEUTICS, published 2026).

B1: anti-TrkB clone 3B06 (antibody, V domains shown)
VH: EVQLVQSGAEVKEPGASVKVSCKASGYTFTNYAMHWVRQAPGQRLEWMGWINPNTGGTNYAQKFQGRVTMTRDTSISTAYMELSSLRSDDTAVYYCARGGGGLVFWGQGTLVTVSS
VL: DIVMTQTPLSLPVTLGQPASISCRSSQSLVDRDGNTYLNWFRQRPGQSPRRLIYKVSNRDSGVPGTFSGSGSGTDFTLKISRVEADDVGVYFCMQATHWPPTFGQGTKVEI
notes: full-length IgG
B2: anti-TrkB clone 2H05 (antibody, V domains shown)
VH: EVQLVESGAEVKKPGESLRISCKGSGYSFTNNWINWVRQMPGKGLEWMGRIDPDDSYTNYSPSFQGHVIFSADKSSNTVYLQWSSLEASDTAMYYCARRAQGGGGYDYWGQGTLVTVSS
VL: QSVLTQPSSVSGAPGQRVTISCTGSSSNIGAGYGVHWYQQLPGTAPKLLIYDDINRPSGVPDRFSGSKSGTSASLAITGLRAEDEADYYCQSYDTSRGGLYVFGSGTKLTVL
notes: full-length IgG
B3: anti-TrkB clone 2E08 (antibody, V domains shown)
VH: QVQLVQSGAEVKKPGESLKISCTGSGYRFSHYWIGWVRQMPGKGLEWMGMIYPDDSDTRYSPSFQGQVTISADKSINTAYLQWTSLRASDSAIYYCATGVISGTDYWGQGTLVTVSS
VL: SYVLTQPPSVSVSPGQTARITCSGDKLGDKYVSWYQLKPGQSPVVVIYQDNKRPSGIPERFSASNSENTGTLTISGTQAMDEADYYCQTWDSGTGVFGTGTKLTVL
notes: full-length IgG
B4: anti-TrkB clone 3D03 (antibody, V domains shown)
VH: EVQLVQSGAEVKKPGESLKISCKGSGYSFTSYWIGWVRQMPGKGLEWMGIIYPGDSDTRYSPSFQGQVTISADKSISTAYLQWSSLKASDTAMYYCARLGGSLPIDYWGQGTLVTVSS
VL: QSVLTQPPSVSVSPGQTASITCSGDKLGDKYVSWYQQKPGQSPVLVIYQDSKRPSGIPERFSGSNSGSTATLTISGTQALDEADYYCQAWDNNIGVFGGGTKLTVL
notes: full-length IgG

The binders below were run against T1, mouse TrkB-ECD-GST (mouse, UniProt P15209 32-429) (assay: ELISA).
T1 construct: extracellular domain; in-house fusion, HEK293; also called mTrkB-ECD-GST; mTrkB (ELISA); not shown: glutathione S-transferase (GST) fusion part

Row | binding result | Binder
1 | no binding (tested: up to 10 µg/mL) | B1
2 | no binding (tested: up to 10 µg/mL) | B2
3 | no binding (tested: up to 10 µg/mL) | B3
4 | no binding (tested: up to 10 µg/mL) | B4

These binders were tested against T2, human TrkB-ECD-GST (human, UniProt Q16620 32-430) (assay: ELISA).
T2 construct: in-house fusion, HEK293; also called hTrkB-ECD-GST; human TrkB-GST; not shown: glutathione S-transferase (GST) fusion part

Row | binding result | Binder
5 | no binding (tested: up to 10 µg/mL) | B1
6 | no binding (tested: up to 10 µg/mL) | B2
7 | no binding (tested: up to 10 µg/mL) | B3
8 | no binding (tested: up to 10 µg/mL) | B4
